Percent decrease of the co-precipitated complex in A549 + ITSN-1s cells against A549 cells data for one molecule are collected here from publication PMC5024437.

The test addresses T1, mSos1 (human (endogenous in A549)), Q07889.
T1 chain: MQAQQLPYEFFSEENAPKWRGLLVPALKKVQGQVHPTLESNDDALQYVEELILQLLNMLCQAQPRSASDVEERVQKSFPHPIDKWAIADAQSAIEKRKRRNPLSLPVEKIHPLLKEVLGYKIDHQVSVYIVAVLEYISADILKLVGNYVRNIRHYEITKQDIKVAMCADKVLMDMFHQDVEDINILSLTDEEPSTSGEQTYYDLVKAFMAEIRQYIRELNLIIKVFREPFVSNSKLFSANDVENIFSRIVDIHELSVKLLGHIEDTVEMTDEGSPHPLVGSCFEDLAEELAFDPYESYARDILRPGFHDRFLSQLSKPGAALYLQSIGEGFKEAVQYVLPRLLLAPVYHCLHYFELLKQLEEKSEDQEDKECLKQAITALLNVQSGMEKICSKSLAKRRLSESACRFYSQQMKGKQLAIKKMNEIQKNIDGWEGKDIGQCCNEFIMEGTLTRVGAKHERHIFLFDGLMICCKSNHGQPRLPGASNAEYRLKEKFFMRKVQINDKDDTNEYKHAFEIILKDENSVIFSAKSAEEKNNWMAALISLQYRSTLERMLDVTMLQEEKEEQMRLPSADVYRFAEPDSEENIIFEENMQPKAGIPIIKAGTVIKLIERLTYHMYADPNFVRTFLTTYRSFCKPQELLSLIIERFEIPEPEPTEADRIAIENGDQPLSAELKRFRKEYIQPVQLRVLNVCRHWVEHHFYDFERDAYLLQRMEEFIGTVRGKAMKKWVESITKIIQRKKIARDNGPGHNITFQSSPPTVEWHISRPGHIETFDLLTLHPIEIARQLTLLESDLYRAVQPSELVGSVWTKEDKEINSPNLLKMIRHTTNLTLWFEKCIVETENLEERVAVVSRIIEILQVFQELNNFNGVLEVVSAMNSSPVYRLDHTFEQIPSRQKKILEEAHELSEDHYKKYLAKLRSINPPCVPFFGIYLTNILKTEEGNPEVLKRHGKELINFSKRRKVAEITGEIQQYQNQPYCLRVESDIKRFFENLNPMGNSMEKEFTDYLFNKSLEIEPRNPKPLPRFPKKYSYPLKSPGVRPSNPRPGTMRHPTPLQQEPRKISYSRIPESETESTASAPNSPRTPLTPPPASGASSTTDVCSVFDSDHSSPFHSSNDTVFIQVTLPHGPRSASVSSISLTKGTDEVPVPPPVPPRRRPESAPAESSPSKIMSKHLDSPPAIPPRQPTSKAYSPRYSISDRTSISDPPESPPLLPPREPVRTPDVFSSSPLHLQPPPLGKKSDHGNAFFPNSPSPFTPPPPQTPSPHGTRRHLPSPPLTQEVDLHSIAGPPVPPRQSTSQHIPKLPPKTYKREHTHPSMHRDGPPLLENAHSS
In words: co-IP; A549 and A549 + ITSN-1s (stable myc-ITSN-1s) cell lysates, 500 ug total protein, lysis buffer 50 mM Tris-HCl pH 8.0, 150 mM NaCl, 1 % NP-40; IP with 3 ug mSos1 or Cbl Ab and protein A/G, WB with Rac1 or Eps8 Ab; densitometry as percentage of control. The following applies: remark: other sources report otherwise.

B1: Eps8, Q12929 1-822 (natural protein)
chain: MNGHISNHPSSFGMYPSQMNGYGSSPTFSQTDREHGSKTSAKALYEQRKNYARDSVSSVSDISQYRVEHLTTFVLDRKDAMITVDDGIRKLKLLDAKGKVWTQDMILQVDDRAVSLIDLESKNELENFPLNTIQHCQAVMHSCSYDSVLALVCKEPTQNKPDLHLFQCDEVKANLISEDIESAISDSKGGKQKRRPDALRMISNADPSIPPPPRAPAPAPPGTVTQVDVRSRVAAWSAWAADQGDFEKPRQYHEQEETPEMMAARIDRDVQILNHILDDIEFFITKLQKAAEAFSELSKRKKNKKGKRKGPGEGVLTLRAKPPPPDEFLDCFQKFKHGFNLLAKLKSHIQNPSAADLVHFLFTPLNMVVQATGGPELASSVLSPLLNKDTIDFLNYTVNGDERQLWMSLGGTWMKARAEWPKEQFIPPYVPRFRNGWEPPMLNFMGATMEQDLYQLAESVANVAEHQRKQEIKRLSTEHSSVSEYHPADGYAFSSNIYTRGSHLDQGEAAVAFKPTSNRHIDRNYEPLKTQPKKYAKSKYDFVARNNSELSVLKDDILEILDDRKQWWKVRNASGDSGFVPNNILDIVRPPESGLGRADPPYTHTIQKQRMEYGPRPADTPPAPSPPPTPAPVPVPLPPSTPAPVPVSKVPANITRQNSSSSDSGGSIVRDSQRHKQLPVDRRKSQMEEVQDELIHRLTIGRSAAQKKFHVPRQNVPVINITYDSTPEDVKTWLQSKGFNPVTVNSLGVLNGAQLFSLNKDELRTVCPEGARVYSQITVQKAALEDSSGSSELQEIMRRRQEKISAAASDSGVESFDEGSSH
As to B1, the percent decrease of the co-precipitated complex in A549 + ITSN-1s cells against A549 cells is 54%.
